The data set deals with HAKAI;WTAP;VIRMA;ZC3H13 (1106-1668);METTL3;METTL14 (Homo sapiens;Homo sapiens;Homo …, UniProt Q75N03;Q15007;Q69YN4;Q5T200;Q86U44;Q9HCE5 …, |||||). Description: s4U UV crosslinking MS; sites METTL3 F321; VIRMA P140, E1597, F1706; EMSA: 5 nM FAM-RNA, 20 mM HEPES pH 7.5, 100 mM KCl, 10% glycerol, 1 mM DTT, 25 C, 20 min; 8% native PAGE in 1x TBE at 4 C; Kd from loss of free RNA, Hill fit, n. The settings on record: protein: recombinant;recombinant;recombinant;recombinant;recombinant;recombinant, tags: untagged;N-6xHis;N-6xHis;N-Twin-Strep;N-GST-TEV, removed;N-6xHis-TEV. A general note: A gel shift assay detects complexes by their altered migration in electrophoresis.

The results in this text go back to publication PMC9652331, “Cryo-EM structures of human m6A writer complexes”.

B1: s4U-ACTB-1 RNA (ssRNA)
RNA: GGCCCCUCCAUCGUCCACCGCAAAUGCUUCUAGGCGGACUAUGACUUAGUUGCGUUACACCCUUUCUUGACAAAACCUAACUUGCACAGAAAACA
modifications: 4-thiouridine (s4U); positions not given
As to B1, the binding result is listed as “binds”.
